According to PMC8616854:

Columns and labels:
[1] = biological target: CdiA‐CT^BWH57 toxin (nuclease) domain (Serratia marcescens BWH57); assay: crystal structure; CdiA-CT•CdiI complex, 1.59 Å; the N-terminal domain of CdiA-CT was cleaved off by in situ proteolysis before crystallisation
[2] = biological target: Histidine zipper coiled coil protein from Meiothermus silvanus (Meio) (Meiothermus silvanus); assay: crystal structure; crystal structures of the histidine zipper proteins (1.35 to 1.93 Å); antiparallel homo-dimers
[3] = biological target: Histidine zipper coiled coil protein from Methylobacter tundripaludum (Tuna) (Methylobacter tundripaludum); assay: as above
[4] = biological target: Histidine zipper coiled coil protein from Nitrosococcus oceani (Nitro) (Nitrosococcus oceani); assay: as above

Substance: CdiI^BWH57 immunity protein (natural protein)
- stoichiometry N [1]: 1

Substance: Histidine zipper coiled coil protein from Meiothermus silvanus (Meio) (natural protein)
- stoichiometry N [2]: 2

Substance: Histidine zipper coiled coil protein from Methylobacter tundripaludum (Tuna) (natural protein)
- stoichiometry N [3]: 2

Substance: Histidine zipper coiled coil protein from Nitrosococcus oceani (Nitro) (natural protein)
- stoichiometry N [4]: 2
